Assay results published in patent publication US20240109955A1.

Legend:
Assay in all cases: cell-based or functional assay
[1] = molecular target: SARS-CoV-2 Omicron variant BQ.1 spike protein (SARS-CoV-2)
[2] = molecular target: SARS-CoV-2 Omicron variant BQ.1.1 spike protein (SARS-CoV-2)
[3] = molecular target: SARS-CoV-2 Omicron variant XBB spike protein (SARS-CoV-2)
[4] = molecular target: SARS-CoV-2 Omicron variant BA.4/5 spike protein (SARS-CoV-2)
[5] = molecular target: SARS-CoV-2 Omicron variant BA.2.75.2 spike protein (SARS-CoV-2)

Binder	IC50, pseudovirus neutralization [1] [µg/mL]	IC80, pseudovirus neutralization [1] [µg/mL]	IC50, pseudovirus neutralization [2] [µg/mL]	IC80, pseudovirus neutralization [2] [µg/mL]	IC50, pseudovirus neutralization [3] [µg/mL]	IC80, pseudovirus neutralization [3] [µg/mL]	IC50, pseudovirus neutralization [4] [µg/mL]	IC80, pseudovirus neutralization [4] [µg/mL]	IC50, pseudovirus neutralization [5] [µg/mL]	IC80, pseudovirus neutralization [5] [µg/mL]
MX1027 (bispecific antibody) chain 1: EIVMTQSPAILSVSPGERATLSCRASQSVAINLAWYQQKPGQAPRLLIYAASSRATGIPGRFSGSGSETNFTLTISSLQSGDFAVYYCQQYITWPPSYTFGQGTKLEIKGGSSGQTVVTQEPSFSVSPGGTVTLTCGLSSGSVSTAYFPSWYQQTPGQAPRTLIYGTNTRSSGVPDRFSGSILGNKAALTITGAQADDESDYYCVLYMGRGIVVFGGGTKLTVLGGGGSGGSGSGGGGSASGSGQVQLVESGGGVVQPGRSLRLSCAASGFTLSSYGMHWVRQAPGKGLEWVAVISYDGSNKYYVDSVKGRFTISRDNSKNTLYLQMNSLRAEDTAVYYCRWAYWELLPDYYYGMDVWGQGTTVTVSSGGSSGEVQLVESGGALIQPGGSLRLSCAASGIIVSANYMSWVRQAPGKGLEWVSVIYSGGSTFYADSVKGRFTISRDNSKNTLYLEMNSLRAEDTAVYYCARDAPILGVSDWGQGTLVTVSSASGGSGDKTHTCPPCPAPELLGGPSVFLFPPKPKDTLMISRTPEVTCVVVDVSHEDPEVKFNWYVDGVEVHNAKTKPREEQYNSYVVSVLTVLHQDWLNGKEYKCKVSNKALPAPIEKTISKAKGQPREPQVYTLPPCRDELTKNQVSLWCLVKGFYPSDIAVEWESNGQPENNYKTTPPVLDSDGSFFKKLTVDKSRWQQGNVFSCSVLHEALHSHYTQKSLSLSPG chain 2: QTVVTQEPSFSVSPGGTVTLTCGLSSGSVSTAYFPSWYQQTPGQAPRTLIYGTNTRSSGVPDRFSGSILGNKAALTITGAQADDESDYYCVLYMGRGIVVFGGGTKLTVLGGSSGEIVMTQSPAILSVSPGERATLSCRASQSVAINLAWYQQKPGQAPRLLIYAASSRATGIPGRFSGSGSETNFTLTISSLQSGDFAVYYCQQYITWPPSYTFGQGTKLEIKGGGGSGGSGSGGGGSASGSGEVQLVESGGALIQPGGSLRLSCAASGIIVSANYMSWVRQAPGKGLEWVSVIYSGGSTFYADSVKGRFTISRDNSKNTLYLEMNSLRAEDTAVYYCARDAPILGVSDWGQGTLVTVSSGGSSGQVQLVESGGGVVQPGRSLRLSCAASGFTLSSYGMHWVRQAPGKGLEWVAVISYDGSNKYYVDSVKGRFTISRDNSKNTLYLQMNSLRAEDTAVYYCRWAYWELLPDYYYGMDVWGQGTTVTVSSASGGSGDKTHTCPPCPAPELLGGPSVFLFPPKPKDTLMISRTPEVTCVVVDVSHEDPEVKFNWYVDGVEVHNAKTKPREEQYNSYVVSVLTVLHQDWLNGKEYKCKVSNKALPAPIEKTISKAKGQPREPQVCTLPPSRDELTKNQVSLSCAVKGFYPSDIAVEWESNGQPENNYKTTPPVLDSDGSFFLVSKLTVDKSRWQQGNVFSCSVLHEALHSHYTQKSLSLSPG	0.0216	0.0649	0.0135	0.0232	0.0129	0.0207				
MX1028 (bispecific antibody) chain 1: EIVMTQSPAILSVSPGERATLSCRASQSVAINLAWYQQKPGQAPRLLIYAASSRATGIPGRFSGSGSETNFTLTISSLQSGDFAVYYCQQYITWPPSYTFGQGTKLEIKGGSSGDTVMTQSPLSLPVTPGEPASISCRSSQSLLNSNGYNYLDWYVQKPGQSPQLLIYLGSNRASGVPDRFSGSGSGTDFTLKISRVEAEDVGVYYCMQPLQTPLFTFGPGTKVEIKGGGGSGGSGSGGGGSASGSGQVTLRESGPALVKPTQTLTLTCTFSGFSLSTRGVCVSWIRQPPGKALEWLAFIDWDDDKYYNTSLKTRLTISKDTSKNQVVLTMTNVHPVDTATYYCARISSHHGSSWCTTFDYWGQGALVTVSAGGSSGEVQLVESGGALIQPGGSLRLSCAASGIIVSANYMSWVRQAPGKGLEWVSVIYSGGSTFYADSVKGRFTISRDNSKNTLYLEMNSLRAEDTAVYYCARDAPILGVSDWGQGTLVTVSSASGGSGDKTHTCPPCPAPELLGGPSVFLFPPKPKDTLMISRTPEVTCVVVDVSHEDPEVKFNWYVDGVEVHNAKTKPREEQYNSYVVSVLTVLHQDWLNGKEYKCKVSNKALPAPIEKTISKAKGQPREPQVYTLPPCRDELTKNQVSLWCLVKGFYPSDIAVEWESNGQPENNYKTTPPVLDSDGSFFKKLTVDKSRWQQGNVFSCSVLHEALHSHYTQKSLSLSPG chain 2: DTVMTQSPLSLPVTPGEPASISCRSSQSLLNSNGYNYLDWYVQKPGQSPQLLIYLGSNRASGVPDRFSGSGSGTDFTLKISRVEAEDVGVYYCMQPLQTPLFTFGPGTKVEIKGGSSGEIVMTQSPAILSVSPGERATLSCRASQSVAINLAWYQQKPGQAPRLLIYAASSRATGIPGRFSGSGSETNFTLTISSLQSGDFAVYYCQQYITWPPSYTFGQGTKLEIKGGGGSGGSGSGGGGSASGSGEVQLVESGGALIQPGGSLRLSCAASGIIVSANYMSWVRQAPGKGLEWVSVIYSGGSTFYADSVKGRFTISRDNSKNTLYLEMNSLRAEDTAVYYCARDAPILGVSDWGQGTLVTVSSGGSSGQVTLRESGPALVKPTQTLTLTCTFSGFSLSTRGVCVSWIRQPPGKALEWLAFIDWDDDKYYNTSLKTRLTISKDTSKNQVVLTMTNVHPVDTATYYCARISSHHGSSWCTTFDYWGQGALVTVSAASGGSGDKTHTCPPCPAPELLGGPSVFLFPPKPKDTLMISRTPEVTCVVVDVSHEDPEVKFNWYVDGVEVHNAKTKPREEQYNSYVVSVLTVLHQDWLNGKEYKCKVSNKALPAPIEKTISKAKGQPREPQVCTLPPSRDELTKNQVSLSCAVKGFYPSDIAVEWESNGQPENNYKTTPPVLDSDGSFFLVSKLTVDKSRWQQGNVFSCSVLHEALHSHYTQKSLSLSPG	0.0105	0.0255	0.0042	0.0144	0.00677	0.0161	0.00181	0.00373	0.00243	0.0074
A46 + B8 (protein) VH 1: QVQLVESGGGVVQPGRSLRLSCAASGFTLSSYGMHWVRQAPGKGLEWVAVISYDGSNKYYVDSVKGRFTISRDNSKNTLYLQMNSLRAEDTAVYYCRWAYWELLPDYYYGMDVWGQGTTVTVSS VL 1: QTVVTQEPSFSVSPGGTVTLTCGLSSGSVSTAYFPSWYQQTPGQAPRTLIYGTNTRSSGVPDRFSGSILGNKAALTITGAQADDESDYYCVLYMGRGIVVFGGGTKLTVL VH 2: EVQLVESGGALIQPGGSLRLSCAASGIIVSANYMSWVRQAPGKGLEWVSVIYSGGSTFYADSVKGRFTISRDNSKNTLYLEMNSLRAEDTAVYYCARDAPILGVSDWGQGTLVTVSS VL 2: EIVMTQSPAILSVSPGERATLSCRASQSVAINLAWYQQKPGQAPRLLIYAASSRATGIPGRFSGSGSETNFTLTISSLQSGDFAVYYCQQYITWPPSYTFGQGTKLEIK	0.0186	0.0493	0.0145	0.0273	0.0186	0.0481				
E8 + B8 (protein) VH 1: QVTLRESGPALVKPTQTLTLTCTFSGFSLSTRGVCVSWIRQPPGKALEWLAFIDWDDDKYYNTSLKTRLTISKDTSKNQVVLTMTNVHPVDTATYYCARISSHHGSSWCTTFDYWGQGALVTVSA VL 1: DTVMTQSPLSLPVTPGEPASISCRSSQSLLNSNGYNYLDWYVQKPGQSPQLLIYLGSNRASGVPDRFSGSGSGTDFTLKISRVEAEDVGVYYCMQPLQTPLFTFGPGTKVEIK VH 2: EVQLVESGGALIQPGGSLRLSCAASGIIVSANYMSWVRQAPGKGLEWVSVIYSGGSTFYADSVKGRFTISRDNSKNTLYLEMNSLRAEDTAVYYCARDAPILGVSDWGQGTLVTVSS VL 2: EIVMTQSPAILSVSPGERATLSCRASQSVAINLAWYQQKPGQAPRLLIYAASSRATGIPGRFSGSGSETNFTLTISSLQSGDFAVYYCQQYITWPPSYTFGQGTKLEIK	0.011	0.0305	0.00955	0.0132	0.00996	0.0181				
